Consider one molecule from PMC11548754, “DRN facilitates WUS transcriptional regulatory activity by chromatin remodeling to regulate shoot stem cell homeostasis in Arabidopsis”.

One data set concerns the target T1, GST-WUS (WUSCHEL) (Arabidopsis thaliana, UniProt Q9SB92 1-292).
T1 sequence: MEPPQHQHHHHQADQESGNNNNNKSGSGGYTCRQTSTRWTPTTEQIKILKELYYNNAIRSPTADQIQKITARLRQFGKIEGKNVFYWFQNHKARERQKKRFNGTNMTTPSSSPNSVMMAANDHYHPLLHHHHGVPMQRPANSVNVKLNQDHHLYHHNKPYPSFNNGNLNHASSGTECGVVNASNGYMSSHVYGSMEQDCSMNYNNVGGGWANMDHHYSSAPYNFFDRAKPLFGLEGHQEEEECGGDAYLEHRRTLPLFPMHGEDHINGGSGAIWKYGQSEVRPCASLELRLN
Briefly: EMSA; EMSA kit (Thermo 20148), biotin-labeled probe; buffer, salt, pH and temperature not stated. The conditions noted are these: protein: recombinant; tags: N-terminal GST (pGEX6p-1); chain copies: 2; label: biotin; blunt. On the technique in general: In EMSA bound probe runs differently from free probe, usually more slowly.

Data set [1] concerns the target GST-WUS (WUSCHEL);8His-MBP-DRN (DORNROSCHEN) (Arabidopsis thaliana;Arabidopsis …, UniProt Q9SB92;Q9SAD4 1-292;1-328, |). Nature of the data set: EMSA; super-shift on adding DRN to WUS; EMSA kit (Thermo 20148), biotin-labeled probe; buffer, salt, pH and temperature not stated. Conditions: protein: recombinant;recombinant; tags: N-terminal GST (pGEX6p-1);N-terminal 8His-MBP (modified pET28b); label: biotin; blunt.

GST-WUS (WUSCHEL);8His-MBP-DRN (DORNROSCHEN), sequence (Q9SAD4 whole entry, one chain of several): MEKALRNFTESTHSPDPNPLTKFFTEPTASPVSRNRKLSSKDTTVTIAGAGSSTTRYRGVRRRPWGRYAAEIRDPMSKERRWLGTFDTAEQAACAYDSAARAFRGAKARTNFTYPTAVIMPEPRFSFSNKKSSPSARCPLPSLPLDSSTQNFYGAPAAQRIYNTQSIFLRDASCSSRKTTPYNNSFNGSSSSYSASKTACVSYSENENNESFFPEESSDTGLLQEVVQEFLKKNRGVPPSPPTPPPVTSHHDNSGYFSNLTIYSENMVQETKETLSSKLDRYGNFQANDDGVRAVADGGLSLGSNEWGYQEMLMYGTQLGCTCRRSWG

B1: CLV3 promoter probe (-1090 to -1064) (dsDNA)
DNA 1: GGCTCATATAATCCATTCAATTTATG
DNA 2: CATAAATTGAATGGATTATATGAGCC
Take B1: the binding result (with GST-WUS (WUSCHEL); in data set [1]) was “binds” in each case.
